Assay results reported in patent US20220048967A1 (published 2022).
Numbered stars: 1 amine (or outer) side, 2 acyl side, 3 side chain; on linkers, the order of the positions; unused ones are H or OH. Square brackets hold non-standard residues; d marks the D form. Side chains are listed from the residue outwards. Ends that are not written are not given here. * marks the point of attachment. C18 diacid = O=C(O)CCCCCCCCCCCCCCCCC(=O)*; γGlu = O=C(O)[C@H](CCC(=O)[*:2])N[*:1]; AEEA = NCCOCCOCC(=O)O; Aib = CC(C)(N)C(=O)O

T1: human gastric inhibitory peptide receptor (GIPR) (human, UniProt P48546 22-466)
T1 sequence (looked up): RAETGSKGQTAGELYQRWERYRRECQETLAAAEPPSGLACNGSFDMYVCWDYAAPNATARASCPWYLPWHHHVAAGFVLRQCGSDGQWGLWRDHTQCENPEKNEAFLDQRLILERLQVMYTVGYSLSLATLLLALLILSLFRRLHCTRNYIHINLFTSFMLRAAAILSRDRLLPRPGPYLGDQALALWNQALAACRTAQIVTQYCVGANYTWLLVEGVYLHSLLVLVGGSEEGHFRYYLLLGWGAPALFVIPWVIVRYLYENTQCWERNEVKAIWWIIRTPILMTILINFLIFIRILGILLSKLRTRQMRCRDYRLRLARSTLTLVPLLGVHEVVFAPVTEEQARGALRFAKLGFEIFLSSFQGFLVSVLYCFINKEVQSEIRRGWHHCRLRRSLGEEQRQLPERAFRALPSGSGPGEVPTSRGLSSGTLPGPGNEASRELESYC

B1: Example 266 (peptide)
peptide: Y[Aib]EGTFTSDYSILLDKK([AEEA-AEEA-γGlu-C18 diacid])AQ[Aib]AFIEYLIEGGPSSG-NH2
modifications: N-terminus assumed
SMILES: CC[C@H](C)[C@H](NC(=O)[C@H](CC(C)C)NC(=O)[C@H](Cc1ccc(O)cc1)NC(=O)[C@H](CCC(=O)O)NC(=O)[C@@H](NC(=O)[C@H](Cc1ccccc1)NC(=O)[C@H](C)NC(=O)C(C)(C)NC(=O)[C@H](CCC(N)=O)NC(=O)[C@H](C)NC(=O)[C@H](CCCCNC(=O)COCCOCCNC(=O)COCCOCCNC(=O)CC[C@H](NC(=O)CCCCCCCCCCCCCCCCC(=O)O)C(=O)O)NC(=O)[C@H](CCCCN)NC(=O)[C@H](CC(=O)O)NC(=O)[C@H](CC(C)C)NC(=O)[C@H](CC(C)C)NC(=O)[C@@H](NC(=O)[C@H](CO)NC(=O)[C@H](Cc1ccc(O)cc1)NC(=O)[C@H](CC(=O)O)NC(=O)[C@H](CO)NC(=O)[C@@H](NC(=O)[C@H](Cc1ccccc1)NC(=O)[C@@H](NC(=O)CNC(=O)[C@H](CCC(=O)O)NC(=O)C(C)(C)NC(=O)[C@@H](N)Cc1ccc(O)cc1)[C@@H](C)O)[C@@H](C)O)[C@@H](C)CC)[C@@H](C)CC)C(=O)N[C@@H](CCC(=O)O)C(=O)NCC(=O)NCC(=O)N1CCC[C@H]1C(=O)N[C@@H](CO)C(=O)N[C@@H](CO)C(=O)NCC(N)=O
B2: Example 267 (peptide)
peptide: Y[Aib]EGTFTSDYSILLDKK([AEEA-AEEA-γGlu-C18 diacid])AQ[Aib]AFIEYLIEGG-NH2
modifications: N-terminus assumed
SMILES: CC[C@H](C)[C@H](NC(=O)[C@H](CC(C)C)NC(=O)[C@H](Cc1ccc(O)cc1)NC(=O)[C@H](CCC(=O)O)NC(=O)[C@@H](NC(=O)[C@H](Cc1ccccc1)NC(=O)[C@H](C)NC(=O)C(C)(C)NC(=O)[C@H](CCC(N)=O)NC(=O)[C@H](C)NC(=O)[C@H](CCCCNC(=O)COCCOCCNC(=O)COCCOCCNC(=O)CC[C@H](NC(=O)CCCCCCCCCCCCCCCCC(=O)O)C(=O)O)NC(=O)[C@H](CCCCN)NC(=O)[C@H](CC(=O)O)NC(=O)[C@H](CC(C)C)NC(=O)[C@H](CC(C)C)NC(=O)[C@@H](NC(=O)[C@H](CO)NC(=O)[C@H](Cc1ccc(O)cc1)NC(=O)[C@H](CC(=O)O)NC(=O)[C@H](CO)NC(=O)[C@@H](NC(=O)[C@H](Cc1ccccc1)NC(=O)[C@@H](NC(=O)CNC(=O)[C@H](CCC(=O)O)NC(=O)C(C)(C)NC(=O)[C@@H](N)Cc1ccc(O)cc1)[C@@H](C)O)[C@@H](C)O)[C@@H](C)CC)[C@@H](C)CC)C(=O)N[C@@H](CCC(=O)O)C(=O)NCC(=O)NCC(N)=O
B3: Example 265 (peptide)
peptide: YXEGTXTSDXSIXLDXKAQXEFIXXLIEGG
modifications: Aib2, αMeF(2F)6, 4Pal10, αMeF13 (so in the source), Orn16, (2-[2-(2-Amino-ethoxy)-ethoxy]-acetyl)2-(γ-Glu)-CO-(CH2)16-CO2H on K17, Aib20, D-Glu24, αMeY25, C-terminal NH2

Columns and labels:
[1] = biological target: T1, human gastric inhibitory peptide …; test: cell-based or functional assay
[2] = biological target: human GLP-1 receptor (GLP-1R) (human, UniProt P43220 24-463); test: cell-based or functional assay

Binder | hGIPR cAMP EC50 ratio [1] | hGIPR cAMP Rel EC50 [1] | hGLP1R cAMP EC50 ratio [2] | hGLP1R cAMP Rel EC50 [2]
B1 | 2.82 | 0.0442 nM | 0.627 | 0.0883 nM
B2 | 1.5 | 0.108 nM | 0.974 | 0.054 nM
B3 | 7.56 | 0.0229 nM | 3.27 | 0.0223 nM
